Laboratory results reported in PMC6978801, “Structural Basis of Teneurin-Latrophilin Interaction in Repulsive Guidance of Migrating Neurons” (Cell, 2020).
One block for each molecule: values may come before it.

Columns and labels:
[1] = target: chicken Ten2 ectodomain, soluble (UniProt Q9DER5); experiment: cell-based binding assay (immunofluorescence, HEK293 cells); details: n = 12, parent: est. 58, read off a plot
[2] = target: mouse Teneurin 2 protein, soluble (UniProt Q9WTS5); experiment: as above; details: n = 12; surface murine Lphn1TL, soluble His-tagged murine Ten2 (ecto); parent: est. 27; read off a plot
murine Lphn2 (ecto) = murine Lphn2 (ecto) (UniProt Q8JZZ7); experiment: as above; details: n = 12; surface chicken Ten2LT, soluble His-tagged murine Lphn2 (ecto); read off a plot
murine Lphn1 (ecto) = experiment: as above; details: n = 12; surface chicken Ten2LT, soluble His-tagged murine Lphn1 (ecto); read off a plot
[3] = target: murine Latrophilin 1 ectodomain (mLphn1 ecto) (mouse) (UniProt Q80TR1); experiment: SPR; Biacore T200, equilibrium binding at 25 °C, PBS + 0.005% polysorbate 20 pH 7.5; Latrophilin constructs biotinylated at a C-terminal Avi-tag and coupled to a streptavidin-coated CM5 chip (670-730 RU ecto, 220 RU Lec-Olf); Ten2 ectodomains injected; apparent KD from a 1:1 Langmuir fit, analyte concentration calculated as monomer; Teneurin is dimeric, values indicative only
[4] = target: murine Latrophilin 2 ectodomain (mLphn2 ecto) (mouse) (UniProt Q8JZZ7); experiment: as above
Sequence of murine Latrophilin 2 ectodomain (mLphn2 ecto) (mouse) (Q8JZZ7 26-1487): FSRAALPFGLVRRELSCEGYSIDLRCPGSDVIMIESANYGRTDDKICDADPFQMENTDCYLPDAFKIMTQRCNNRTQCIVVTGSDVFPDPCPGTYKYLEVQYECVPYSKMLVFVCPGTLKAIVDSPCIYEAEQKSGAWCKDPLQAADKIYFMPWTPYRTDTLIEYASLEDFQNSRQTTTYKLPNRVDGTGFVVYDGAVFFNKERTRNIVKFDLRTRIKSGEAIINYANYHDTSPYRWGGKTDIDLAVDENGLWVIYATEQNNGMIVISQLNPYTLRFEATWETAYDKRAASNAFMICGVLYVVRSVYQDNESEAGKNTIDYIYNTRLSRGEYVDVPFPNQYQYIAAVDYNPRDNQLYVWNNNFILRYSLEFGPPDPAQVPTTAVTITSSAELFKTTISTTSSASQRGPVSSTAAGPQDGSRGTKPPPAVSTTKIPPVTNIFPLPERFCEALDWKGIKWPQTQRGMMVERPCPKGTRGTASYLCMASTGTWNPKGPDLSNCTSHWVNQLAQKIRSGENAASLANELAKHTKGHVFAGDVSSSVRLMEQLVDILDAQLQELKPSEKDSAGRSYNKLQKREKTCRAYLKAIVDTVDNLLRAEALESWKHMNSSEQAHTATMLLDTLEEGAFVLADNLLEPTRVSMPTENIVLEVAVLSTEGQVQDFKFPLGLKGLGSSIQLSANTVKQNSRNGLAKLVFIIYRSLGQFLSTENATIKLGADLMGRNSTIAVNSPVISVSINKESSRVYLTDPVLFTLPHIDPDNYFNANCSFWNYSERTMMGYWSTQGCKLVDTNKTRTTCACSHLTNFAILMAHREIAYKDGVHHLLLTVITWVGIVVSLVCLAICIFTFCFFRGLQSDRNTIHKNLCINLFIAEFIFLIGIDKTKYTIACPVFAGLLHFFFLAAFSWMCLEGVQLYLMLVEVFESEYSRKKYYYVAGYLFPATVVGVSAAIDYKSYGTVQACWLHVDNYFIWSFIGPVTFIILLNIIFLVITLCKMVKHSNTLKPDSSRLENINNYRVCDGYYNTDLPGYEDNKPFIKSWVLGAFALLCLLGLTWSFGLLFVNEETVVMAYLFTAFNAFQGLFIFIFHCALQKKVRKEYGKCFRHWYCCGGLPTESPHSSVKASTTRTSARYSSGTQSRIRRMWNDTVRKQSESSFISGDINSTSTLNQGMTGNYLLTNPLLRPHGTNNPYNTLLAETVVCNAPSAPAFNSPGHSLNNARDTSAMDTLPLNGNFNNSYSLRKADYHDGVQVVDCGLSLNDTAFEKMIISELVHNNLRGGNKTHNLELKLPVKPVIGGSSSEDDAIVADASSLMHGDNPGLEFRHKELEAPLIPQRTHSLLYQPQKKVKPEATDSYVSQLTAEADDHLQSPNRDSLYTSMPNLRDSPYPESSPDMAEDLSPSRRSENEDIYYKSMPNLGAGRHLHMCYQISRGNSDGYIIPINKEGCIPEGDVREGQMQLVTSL

[5] = target: murine Latrophilin 3 ectodomain (mLphn3 ecto) (mouse) (UniProt Q80TS3); experiment: as above
Sequence of murine Latrophilin 3 ectodomain (mLphn3 ecto) (mouse) (Q80TS3 20-1537): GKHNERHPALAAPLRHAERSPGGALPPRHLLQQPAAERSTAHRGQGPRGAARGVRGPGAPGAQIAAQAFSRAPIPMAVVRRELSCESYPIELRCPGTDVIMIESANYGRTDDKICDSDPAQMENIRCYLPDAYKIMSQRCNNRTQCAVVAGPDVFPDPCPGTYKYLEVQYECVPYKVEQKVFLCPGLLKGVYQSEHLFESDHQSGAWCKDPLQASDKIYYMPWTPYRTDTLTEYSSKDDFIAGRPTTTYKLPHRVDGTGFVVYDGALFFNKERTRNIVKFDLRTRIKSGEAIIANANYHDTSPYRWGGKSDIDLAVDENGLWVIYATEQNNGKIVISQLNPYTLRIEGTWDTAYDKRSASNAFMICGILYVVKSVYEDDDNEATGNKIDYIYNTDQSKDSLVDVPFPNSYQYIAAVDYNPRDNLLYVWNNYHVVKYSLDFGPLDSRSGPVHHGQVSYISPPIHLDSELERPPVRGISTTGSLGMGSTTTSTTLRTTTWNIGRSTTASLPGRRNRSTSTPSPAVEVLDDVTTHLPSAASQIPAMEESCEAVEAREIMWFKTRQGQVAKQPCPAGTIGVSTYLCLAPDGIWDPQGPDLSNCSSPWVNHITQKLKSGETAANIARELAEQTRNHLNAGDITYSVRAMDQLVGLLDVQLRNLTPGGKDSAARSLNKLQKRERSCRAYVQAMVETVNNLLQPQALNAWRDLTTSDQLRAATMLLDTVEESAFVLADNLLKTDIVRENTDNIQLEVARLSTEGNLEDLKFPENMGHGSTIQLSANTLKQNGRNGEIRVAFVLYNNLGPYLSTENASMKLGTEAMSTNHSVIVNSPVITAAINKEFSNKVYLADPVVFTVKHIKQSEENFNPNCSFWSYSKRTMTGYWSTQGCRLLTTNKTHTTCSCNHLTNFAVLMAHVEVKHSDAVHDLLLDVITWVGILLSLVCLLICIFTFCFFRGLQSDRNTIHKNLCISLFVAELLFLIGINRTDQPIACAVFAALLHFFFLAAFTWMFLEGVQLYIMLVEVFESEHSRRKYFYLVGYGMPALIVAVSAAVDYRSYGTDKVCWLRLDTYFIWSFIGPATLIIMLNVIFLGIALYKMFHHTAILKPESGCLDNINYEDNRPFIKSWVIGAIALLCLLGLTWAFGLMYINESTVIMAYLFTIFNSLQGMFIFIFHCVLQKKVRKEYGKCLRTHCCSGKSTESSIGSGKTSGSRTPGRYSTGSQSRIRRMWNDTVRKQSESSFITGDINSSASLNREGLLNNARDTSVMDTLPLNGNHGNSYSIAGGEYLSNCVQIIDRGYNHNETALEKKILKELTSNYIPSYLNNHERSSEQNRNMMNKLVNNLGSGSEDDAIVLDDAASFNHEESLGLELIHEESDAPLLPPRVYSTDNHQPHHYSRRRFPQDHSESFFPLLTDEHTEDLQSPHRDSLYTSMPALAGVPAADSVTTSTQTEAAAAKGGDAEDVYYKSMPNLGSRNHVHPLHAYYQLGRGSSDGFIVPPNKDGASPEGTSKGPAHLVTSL

Lphn1 on K-562 cells = Lphn1 on K-562 cells (UniProt Q80TR1); experiment: K-562 cell aggregation assay; details: n = 3; parent: est. 56; read off a plot
FLRT2 on K-562 cells = FLRT2 on K-562 cells (UniProt Q8BLU0); experiment: K-562 cell aggregation assay; details: n = 3; parent: est. 47; read off a plot
Sequence of FLRT2 on K-562 cells (Q8BLU0 36-660): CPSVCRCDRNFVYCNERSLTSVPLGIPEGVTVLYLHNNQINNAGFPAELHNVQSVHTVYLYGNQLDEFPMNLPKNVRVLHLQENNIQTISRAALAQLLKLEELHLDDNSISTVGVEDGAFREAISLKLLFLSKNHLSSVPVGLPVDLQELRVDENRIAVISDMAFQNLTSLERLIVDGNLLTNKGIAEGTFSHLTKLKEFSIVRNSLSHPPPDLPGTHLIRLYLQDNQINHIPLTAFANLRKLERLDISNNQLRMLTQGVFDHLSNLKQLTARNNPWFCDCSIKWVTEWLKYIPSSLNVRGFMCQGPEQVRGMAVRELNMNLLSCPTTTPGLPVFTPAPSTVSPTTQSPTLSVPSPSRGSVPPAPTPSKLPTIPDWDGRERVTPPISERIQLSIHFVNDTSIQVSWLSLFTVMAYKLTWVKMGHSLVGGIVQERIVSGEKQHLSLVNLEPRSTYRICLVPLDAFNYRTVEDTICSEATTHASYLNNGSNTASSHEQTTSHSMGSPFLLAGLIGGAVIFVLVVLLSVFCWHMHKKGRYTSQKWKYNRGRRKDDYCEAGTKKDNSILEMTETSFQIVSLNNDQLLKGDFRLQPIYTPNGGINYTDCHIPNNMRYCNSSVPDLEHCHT

Ten2 on K-562 cells = Ten2 on K-562 cells (UniProt Q9DER5); experiment: K-562 cell aggregation assay; details: n = 3; parent: est. 56; read off a plot
[6] = target: T1, murine Teneurin 2 ectodomain (mTen2 ecto) (mouse, UniProt Q9WTS5 401-2764); experiment: SPR; Biacore T200, equilibrium binding at 25 °C, PBS + 0.005% polysorbate 20 pH 7.5; Latrophilin constructs biotinylated at a C-terminal Avi-tag and coupled to a streptavidin-coated CM5 chip (670-730 RU ecto, 220 RU Lec-Olf); Ten2 ectodomains injected; apparent KD from a 1:1 Langmuir fit, analyte concentration calculated as monomer; Teneurin is dimeric, values indicative only; details: both partners purified
T1 construct: Teneurin-2 (Ten2), mouse, soluble ectodomain ('ecto'); analyte concentration was calculated as monomer; also called mouse Ten2 (ecto); mouse Teneurin 2 protein; source: HEK293 cells, purified (HisTrap, Superdex200 size exclusion)

[7] = target: T2, chicken Teneurin 2 ectodomain (gTen2 ecto) (chicken, UniProt Q9DER5 429-2802); experiment: as above; details: both partners purified
T2 construct: Teneurin-2 (Ten2), chicken (Gallus gallus), soluble ectodomain ('ecto'); analyte concentration was calculated as monomer; also called chicken Ten2 (ecto); source: HEK293 cells, purified (HisTrap, Superdex200 size exclusion)

Molecule: murine Lphn1 (mVenus-tagged, surface of HEK293 cells) E39N
response ([1]; surface murine Lphn1TL, soluble His-tagged chicken Ten2 (ecto)): 0%
response [2]: 0%

Molecule: chicken Ten2, transmembrane construct at the surface of HEK293 cells (from UniProt Q9DER5) 1892N; K1894T
response (murine Lphn2 (ecto)): 2%
response (murine Lphn1 (ecto)): 0%

Molecule: chicken Teneurin 2 ectodomain (gTen2 ecto) (from UniProt Q9DER5 429-2802) (domain or fragment)
Kd [3]: 40 nM
Kd [4]: 60 nM
Kd [5]: 680 nM

Molecule: Ten2 on K-562 cells (from UniProt Q9DER5) 1892N; K1894T
other: aggregation (%) (Lphn1 on K-562 cells): 5%

B1: murine Latrophilin 1 Lec-Olf domains (mLphn1 Lec-Olf) (domain or fragment, mouse, UniProt Q80TR1 29-395, looked up)
chain: GLPFGLMRRELACEGYPIELRCPGSDVIMVENANYGRTDDKICDADPFQMENVQCYLPDAFKIMSQRCNNRTQCVVVAGSDAFPDPCPGTYKYLEVQYDCVPYIFVCPGTLQKVLEPTSTHESEHQSGAWCKDPLQAGDRIYVMPWIPYRTDTLTEYASWEDYVAARHTTTYRLPNRVDGTGFVVYDGAVFYNKERTRNIVKYDLRTRIKSGETVINTANYHDTSPYRWGGKTDIDLAVDENGLWVIYATEGNNGRLVVSQLNPYTLRFEGTWETGYDKRSASNAFMVCGVLYVLRSVYVDDDSEAAGNRVDYAFNTNANREEPVSLAFPNPYQFVSSVDYNPRDNQLYVWNNYFVVRYSLEFGPPD
modifications: biotinylated enzymatically at the C-terminal Avi-tag
notes: The limits 29-395 are printed for the Lec-Olf construct that was crystallised; source: HEK293 cells; biotinylated enzymatically; not shown: Avi-tag, C-terminal, kept
Kd [6]: 290 nM
Kd [7]: 590 nM

The remaining lines, values ahead:

Kd [3]: 35 nM
Kd [4]: 100 nM
Kd [5]: 490 nM
Molecule: murine Teneurin 2 ectodomain (mTen2 ecto) (from UniProt Q9WTS5 401-2764) (domain or fragment)

response ([1]; surface murine Lphn1TL2, soluble His-tagged chicken Ten2 (ecto)): 1.5%
Molecule: murine Lphn1 (mVenus-tagged, surface of HEK293 cells) L39A; P51G; D54A; D67A; D72A

other: aggregation (%) (FLRT2 on K-562 cells): 68%
other: aggregation (%) (Ten2 on K-562 cells): 5%
Molecule: Lphn1 on K-562 cells (from UniProt Q80TR1) E39N
